The assay deals with T1, Cell surface CD117 on CD117+ cells (SKMEL / SKMEL-3 cells, CD34+ cells / HSPCs, Kasumi-1 cells) (UniProt P10721 26-976, limits assumed).
T1 construct: whole, on cells; also called cKIT; C-kit
As to the kind of experiment: flow cytometry on SKMEL cells and CD34 cells (both CD117+).

T1 sequence (P10721 26-976 limits assumed): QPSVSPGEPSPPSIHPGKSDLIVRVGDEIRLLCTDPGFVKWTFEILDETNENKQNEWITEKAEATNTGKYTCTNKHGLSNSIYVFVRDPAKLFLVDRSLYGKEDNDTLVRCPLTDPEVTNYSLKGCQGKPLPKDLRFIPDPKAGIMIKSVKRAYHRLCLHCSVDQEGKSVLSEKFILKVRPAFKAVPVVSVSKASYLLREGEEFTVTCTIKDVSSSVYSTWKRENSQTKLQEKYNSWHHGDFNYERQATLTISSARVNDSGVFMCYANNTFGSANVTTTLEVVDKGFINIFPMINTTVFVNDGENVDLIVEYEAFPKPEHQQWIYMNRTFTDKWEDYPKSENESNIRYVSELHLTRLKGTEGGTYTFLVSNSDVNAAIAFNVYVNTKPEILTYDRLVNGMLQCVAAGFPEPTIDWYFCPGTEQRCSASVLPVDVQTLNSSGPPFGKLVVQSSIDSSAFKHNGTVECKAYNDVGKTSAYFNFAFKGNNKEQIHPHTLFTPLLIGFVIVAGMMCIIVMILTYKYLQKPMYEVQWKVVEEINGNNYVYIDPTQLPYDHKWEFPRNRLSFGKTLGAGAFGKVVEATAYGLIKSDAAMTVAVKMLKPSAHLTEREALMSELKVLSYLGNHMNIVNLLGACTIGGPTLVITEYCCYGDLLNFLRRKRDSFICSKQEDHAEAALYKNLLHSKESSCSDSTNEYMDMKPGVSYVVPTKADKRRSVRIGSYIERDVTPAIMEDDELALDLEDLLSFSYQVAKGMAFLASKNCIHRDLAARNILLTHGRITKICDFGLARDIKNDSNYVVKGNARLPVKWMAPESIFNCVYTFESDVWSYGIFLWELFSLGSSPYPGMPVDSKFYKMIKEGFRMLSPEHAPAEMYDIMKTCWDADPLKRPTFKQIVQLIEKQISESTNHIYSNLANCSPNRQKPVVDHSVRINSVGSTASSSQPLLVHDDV

B1: Anti-CD117 VHH P35 (monovalent form) (VHH)
VHH: QVQLVESGGGLVQAGGSLRLSCAASGGTFSIYPVGWFRQAPGKQREFVAAIGWSASGTYYGDSVEGRFTVSRDNARSTVYLRMSSLKPDDTAVYYCAAASGSNWRLGAIDEYDSWGQGTQVTVSS
notes: Secreted from Expi293 cells
Take B1: the binding result is listed as “binds”.

B2: Anti-CD117 VHH P12 (monovalent form) (VHH)
VHH: QVQLVESGGGLVQAGGSLRLSCTASGDTFSSYSMGWFRQGPGKEREFVGGIRWSGGTTYYADSVKGRFTISRDNAKNTVYLQMNSLKREDTAVYYCAAVRRRWLIWQEEEYDYWGQGTLVTVSS
notes: Secreted from Expi293 cells
As for B2, the binding result is “binds”.

B3: Anti-CD117 VHH P10 (monovalent form) (VHH)
VHH: QVQLVESGGGLVQAGGSLRLSCVASGRTFSSYAMGWFRQGPGKEREFAAAILSNGLTTYYADSVKGRFTISRDNAKDTVYLQMNSLKPEDTANYYCAAAFTPEFRDGGIWDDASVDYWGQGTQVTVSS
notes: Secreted from Expi293 cells
Turning to B3, the binding result was “binds”.

B4: Anti-CD117 VHH P31 (monovalent form) (VHH)
VHH: EVQLVESGGGLVRAGGSLRLSCAASGRTFTYDARAWFRQAPGKEREFVAAISWSGGSTYYPNSMKGRFTISRDNAKNTVYLQMNSLKPEDTAVYYCAADESFPAYYSDYALYRYWGQGTLVTVSS
notes: Secreted from Expi293 cells
Turning to B4, the binding result is recorded as “binds”.

B5: Anti-CD117 VHH P38 (monovalent form) (VHH)
VHH: EVQLVESGGGLVQAGGSLRLSCAASGRTSGSYVMGWFRQAPGKEREFVAAISWSAGMTYYADSVKGRFTISRDNAKNTVYLQMNSLKPEDTAVYYCAADQRGVPAYYSDYALYDYWGQGTQVTVSS
Consider B5, for which the binding result is reported as “binds”.

B6: Anti-CD117 VHH P27 (monovalent form) (VHH)
VHH: EVQLVESGGGLVRAGGSLRLSCAASGRTTFSTYWLGWFRQAPGKNREFVAAISWSAGMAYYQDSKGRFTISRDNTKNTAYLQMNSLQPEDTAVYYCAAGRFHPIRVDTALYWAQGTQVTVSS
notes: Secreted from Expi293 cells
On to B6, for which the binding result was “binds”.

B7: Anti-CD117 VHH P29 (monovalent form) (VHH)
VHH: QVHLVESGGGLVQAGGSLGLSCAASGHTFSNYAMGWFRQAPGKEREFVAAISWSGGSTLYADSVKGRFTISRDNGENTVYLQMNSLKPEDTAVYYCALDSTGVYGTGYVSSRKGRYEYWGQGTLVTVSS
notes: Secreted from Expi293 cells
Consider B7, for which the binding result is on record as “binds”.
